± gives the uncertainty stated by the source.

This series in a line: amyloid nucleation score (Sup35N fusion, yeast selection) (log enrichment); library NNK3; higher = more nucleation; inactive = no reads after selection. Put shortly: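 After 24 hours of induction with 100 μM copper sulfate, psi-negative yeast expressing peptides of 20 random codons fused to Sup35N were grown for 7 days at 30°C on medium lacking adenine and uracil. Input and output plasmid inserts were sequenced with Illumina, and sequences with under 100 input reads were discarded. Scores for nucleation are the DiMSum log enrichment of output over input reads, centred on the mode score of non-aggregating sequences.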
For FGGLWLICSVVYTLNCRSMV, the amyloid nucleation score was 1.79 ± 0.081. In the case of FGGSILTSYINGRGSAGLNW it was 0.797 ± 0.22. Take FGHYRYEFCELSGHGMGVDA: the amyloid nucleation score entry is “inactive”.

For FGINDCVIRV, the amyloid nucleation score result was “inactive”. In the case of FGKRQSAMLLDLNSGWSNLD it was -0.42 ± 1.3; in that of FGLYYRLPNNCNKTGNQFTV, “inactive”; in that of FGQLGVVNGFTELWQRLCSW, “inactive”. For the substance FGQSLAEIRFLFIPIDKMRR, the amyloid nucleation score entry was “inactive”. In the case of FGRTHAYSLFQKKSGFLLTP it was “inactive”; in that of FGSFVRSMALESYLNYINAA, “inactive”; in that of FGTCLNLYL, 1.3 ± 0.11. In the case of FGTLFSTVFRVLRFNRISAP it was “inactive”; in that of FGVFVWEVVVGNMLLPHMVN, “inactive”; in that of FGYVQVTKDPSFMCNYGMQS, “inactive”. Take FGYYTWTAYER: the amyloid nucleation score result was “inactive”. In the case of FHGYRLVYPSDYPWCLSSVH it was “inactive”; in that of FHNCLGTNKNGVLLNGMVWN, “inactive”; in that of FHSWIFQTISLPGQGYRLQ, “inactive”. Turning to FHWYFAVSYTSYNMLSVWFV, the amyloid nucleation score entry is “inactive”. In the case of FIANGSDILADLFLHTSFHG it was “inactive”; in that of FIASNASNCWYLMFVAKLYG, “inactive”; in that of FICVCSNWGFIQNMITAPDW, 2.77 ± 0.074.

FIDQVDIVVCWSTWAI: the amyloid nucleation score result is “inactive”. Turning to FIEVEVWRESSR, the amyloid nucleation score result is “inactive”. In the case of FIEVYCKMGCLRYLVWGWSD it was “inactive”.

For FIFAG, the amyloid nucleation score result is “inactive”. In the case of FIGDVLGSINGKCHLEYLYF it was “inactive”; in that of FIGLIVLILRVFGYDTMRYL, “inactive”; in that of FIHLMLNMRFWRNTFNMPHA, “inactive”.

Turning to FIHMCISFSGYFYDYCFNFN, the amyloid nucleation score entry is “inactive”. In the case of FILNRLTRIIWDF it was “inactive”. Consider FILRDHRLSLSNCAMKCPQG, for which the amyloid nucleation score entry was “inactive”.

In the case of FILRVFMA, the amyloid nucleation score entry is “inactive”. In turn, FINAVAIRMIILVSRTRPTF had an amyloid nucleation score of 0.984 ± 0.12. In the case of FINMKIKQTYMRVFFWICAV it was “inactive”; in that of FIPGMQA, “inactive”. In the case of FIRKSPWQRFDTHFGIIDFK it was 0.778 ± 0.17; in that of FISHRARWISDESYIICHFV, -0.067 ± 1.1. In the case of FISLWQPPRL it was “inactive”; in that of FISSRLFTALLSRCNFHNRF, “inactive”; in that of FIVSNYKSFVLYHLLNRMLV, “inactive”. In the case of FIYIRYPHRRS, the amyloid nucleation score entry is “inactive”.

In the case of FIYYDRFVKPSPKQTVSFSA, the amyloid nucleation score result is “inactive”.

Regarding FKAWMSLKLSTRRLNSCVPR, the amyloid nucleation score entry was “inactive”. FKFGLQLIRCMDFHWMF: the amyloid nucleation score result was “inactive”. In the case of FKGPVDCSVIV it was “inactive”; in that of FKLTDLCC, “inactive”; in that of FKLVGDIYYQYVYALPRNKL, “inactive”. In the case of FKRTTMCGDYAVYVTPGTSL it was “inactive”; in that of FKSVIESTLMIETDY, “inactive”; in that of FKTKDIVRKDEANSHWSMSG, “inactive”. In the case of FKYLRCNNIIVCPVVMVHLT it was 0.345 ± 0.22; in that of FLCRAVRDKNHDIGLCWELR, -0.488 ± 0.8; in that of FLDDSFVFGNRRRWAWGCRG, “inactive”. Consider FLDVFLEFSILIFPSVTFKC, for which the amyloid nucleation score entry was “inactive”. In the case of FLETV it was “inactive”.

For FLFRC, the amyloid nucleation score entry is “inactive”. In the case of FLFRRLGRSYYKYAV it was “inactive”; in that of FLFSW, -0.483 ± 1.9; in that of FLFVCLSLIALTGADSLVQA, “inactive”. For FLGCNRV, the amyloid nucleation score entry was “inactive”. In the case of FLGSYSLTDRIRWVTFPLFQ it was “inactive”.

Turning to FLHQGT, the amyloid nucleation score result is “inactive”. In the case of FLIKSFWNMIVCEAGDCCKD it was 1.75 ± 0.12; in that of FLKCGRSVPGV, “inactive”. On to FLKLGDSGRVYLLCFLAQVS, for which the amyloid nucleation score entry is “inactive”. In the case of FLLIIHHST it was -0.126 ± 0.6; in that of FLMFKIPDTARELHVNSGLG, “inactive”; in that of FLMVGKISKMFKQYNLLFH, “inactive”.

In the case of FLMVLSMDLYVKLLLGSYIN, the amyloid nucleation score result is “inactive”. In the case of FLNTLFYHMGT it was “inactive”; in that of FLPCRFHNSLTDND, “inactive”; in that of FLPRLSNIWPNFDSSEQLRY, “inactive”.

Take FLRLSMKLHNLWYLLGSLWS: the amyloid nucleation score entry is “inactive”. In the case of FLRRGCLFRQT it was “inactive”.

For the substance FLSYLSSIPAPYLNGSAGTT, the amyloid nucleation score entry is “inactive”. In the case of FLTFHGC it was “inactive”. In the case of FLVCHDYAYETVG it was “inactive”; in that of FLVCSGSNVWTREASHGGGN, -0.188 ± 0.47; in that of FLVLFTL, “inactive”.

In turn, FLVLLKTCYDSRPWP registered an amyloid nucleation score of 1.72 ± 0.094. In the case of FLVLTNHRGARVRASCVMDR it was “inactive”.

As to FLWMSGSSGWLSTVVIGGSW, the amyloid nucleation score entry was “inactive”. For the substance FLYYATGHRIFLV, the amyloid nucleation score entry is “inactive”. In the case of FMDKLIESFTYCWCTFGYAH it was “inactive”.

Take FMINSNNRFGISRRTLMSLT: the amyloid nucleation score entry is “inactive”.

In the case of FMKSMVLYPDTVLFYFCLLH, the amyloid nucleation score result was “inactive”. Consider FMPHARASQQLPGGSHFLNL, for which the amyloid nucleation score entry was “inactive”. In the case of FMRDIKLTGGCGVNCAHLHA it was “inactive”. In the case of FMSSVM it was “inactive”; in that of FMVSMIIESSAGTFFMLSLV, “inactive”; in that of FMYMMFERQLPMWDNELLH, -0.251 ± 0.66. In the case of FNAKFFSQNMSVWCGVFM it was 2.6 ± 0.078; in that of FNCLHIYWMM, 0.372 ± 0.42; in that of FNFFQCFRQNASTIFSSGML, “inactive”. Turning to FNFFTKVASDHRNI, the amyloid nucleation score result is “inactive”. In the case of FNFLPNGWRGKVHIGYYGNT it was “inactive”; in that of FNGEGFSRQG, -0.457 ± 1.8. In the case of FNIYCVGPNYATRGAGWVLL it was 1.78 ± 0.095; in that of FNMYFCVIWLCDSFLIMCG, “inactive”; in that of FNPCRGCYETKFHVYRLSRL, 0.584 ± 0.28.

Turning to FNQFHFKCSFNQCCYLNQAA, the amyloid nucleation score result was “inactive”. In the case of FNQQLSECVDVARELAGG it was 1.99 ± 0.086. In the case of FNSGCYT it was “inactive”. In the case of FNVGFLKWCFSMVGQGVDLH it was “inactive”. With FNVLMGTSYFAISEIASVPA, the amyloid nucleation score result was “inactive”. For FPARLYGYMFLKNSTLRFSR, the amyloid nucleation score result is “inactive”.

Consider FPENIVYGHEGLD, for which the amyloid nucleation score entry is “inactive”.

In the case of FPMDL, the amyloid nucleation score result is “inactive”. In the case of FPSKCCANKSSYLGWTSLCW it was “inactive”; in that of FPVSMENFKYA, “inactive”; in that of FQCFFRVLVV, “inactive”. On to FQCRYLKHDDKDNYFKGNGK, for which the amyloid nucleation score result is “inactive”.

FQFWGAGGDI: the amyloid nucleation score result was “inactive”. In the case of FQRFYYLCWPSIWNMFQGGG it was “inactive”; in that of FQRVPNWVSIILTGYRGNTC, “inactive”.

Regarding FQVLN, the amyloid nucleation score entry is “inactive”. In the case of FQWITSIRSSKKMGCY it was “inactive”; in that of FRACIVLYNTVHVVHFNISR, 0.565 ± 0.46; in that of FRADSSVGVIKVCLGRLCRW, “inactive”. In the case of FRAYWLYISALAHQIITMLK it was “inactive”; in that of FRCTRGSIVWSFYFVRNLMI, “inactive”; in that of FRKTGFSFVFLIVDEYFICN, “inactive”.

In the case of FRNLSDVLVRLFPVQLLSYP, the amyloid nucleation score entry is “inactive”.

FRNRLGSTDNQWV: the amyloid nucleation score result is “inactive”. Regarding FRRLHQGLWKMYS, the amyloid nucleation score entry is “inactive”. Regarding FRSTGRKQELLLHSRKKQLP, the amyloid nucleation score result was “inactive”. With FSDCFSRLVYPRGNNLV, the amyloid nucleation score result is “inactive”. In the case of FSFITLMVTLSSVKIGEIWW it was “inactive”; in that of FSGCWRWNNQ, “inactive”; in that of FSGRMVSRIDIIYRRKSVMS, 1.28 ± 0.076.

These data come from the supplement of paper PMC12042874.
